# Results as given in patent US20200123233A1.
# Positions count from the first letter of the chain named.
# B1: LG214A8 (VHH)
# VHH: EVQLVKSGGGSVQAGGSLRLSCAASGGTFNPYVMAWFRQAPGNEREFVARIRWSGGDAYYDDSVKGRFAITRDAAKNTVHLQMNSLKPEDTAVYYCAAATYGYGSYTYGGSYDLWGQGTQVTVSS
# B2: LG214H10 (VHH)
# VHH: B1 VHH with K6E
# B3: LG192C4 (VHH)
# VHH: EVQLVESGGGLVQAGGSLRLSCEASGRTFSSYAMVGWFRQAPGKEREFVAAVTRWSGARTVYADSVKGRFTISRDNAENTVYLQMNSLKPEDTAVYTCAADSTNRNSGAVYYSWAYDYWGQGTQVTVSS
# B4: LG213B7 (VHH)
# VHH: EVQLVESGGGLVQAGGSLRLSCTVSGDTFDNSAAGWYRATSETQRELVARIRSSGSTNYADSVKGRFTVSRDNAKNTVYLQMNSLKPEDTAVYYCNVVSYGEYFWGKGTLVTVSS
# B5: LG213D7 (VHH)
# VHH: B4 VHH
# B6: LG191E4 (VHH)
# VHH: EVQLVESGGGLVQAGGSLRLSCAASGPTFSADTMGWFRQAPGKEREFVATIPWSGGIAYYSDSVKGRFTMSRDNAKNTVDLQMNSLKPEDTALYYCAGSSRIYIYSDSLSERSYDYWGQGTQVTVSS
# B7: LG214F8 (VHH)
# VHH: EVQLVESGGDLVQAGGSLRLSCVASGSTYSINAMGWYRQAPGKLRELVAAFRTGGSTDYADSVKGRFTISRDTAKNTVYLQMNSLKPEDTAVYYCNAEVIYYPYDYWGQGTQVTVSS
# B8: LG214C10 (VHH)
# VHH: EVQLVESGGGLVQPGGSLRLSCAASGFIFGSYDMSWVRQAPGKGPEWVSGINSGGGSTGYADSVKGRFTISRDNAKNTLYLQMNSLKPEDTAVYYCSTNLYPTTDDVWGQGTQVTVSS
# B9: LG213D6 (VHH)
# VHH: EVQLVESGGGLVQPGGSLRLSCAASGFTFGDSDMSWVRQAPGEGPEWVAGINSGGGSTVYADSVKGRFTISRDNAKNMLYLQMNSLKPEDTAVYLCAQGLMAEVTAGYWGQGTQVTVSS
# B10: LG212G2 (VHH)
# VHH: EVQLVESGGGLVQPGGSLRLSCAASGFTFGSHDMSWVRQAPGKGSEWVSGIKSGGGSTLYADSVKGRFAISRDNAKNTLYLQMNSLKPEDTAVYYCATDLYGSTWYPGEDRGTQVTVSS
# B11: LG212A2 (VHH)
# VHH: EVQLVESGGGLVQAGGSLRLSCAASGRTFDTYFVGWFRQAPGKERDFVAAISWSGDRTFYADSVKGRFTISRDNAKNTEYLQMNSLKPEDTAVYYCAAREYGRLYSDSEAYDYWGQGTQVTVSS
# B12: LG212B2 (VHH)
# VHH: EMQLVESGGGLVQAGDSLRLSCAASGDTFSWYVMAWFRQAPGKEREFVTWINRSGASTYYADSVKGRFTIFRDNDKNTVYLQMNSLKPEDTAVYYCAAGGFYGLRTTEERYDTWGQGTQVTVSS
# B13: 212-C12 15GS 212-C12 (VHH)
# chain: EVQLVESGGGLVQPGGSLRLSCAASGFTFGSSDMSWVRQAPGKGPEWVSGINSGGGRTLYADSVKGRFTISRDNAKNTLYLQMNSLKSEDTAVYYCATDLYGSSWYTDYWSQGTQVTVSSGGGGSGGGGSGGGGSEVQLVESGGGLVQPGGSLRLSCAASGFTFGSSDMSWVRQAPGKGPEWVSGINSGGGRTLYADSVKGRFTISRDNAKNTLYLQMNSLKSEDTAVYYCATDLYGSSWYTDYWSQGTQVTVSS
# B14: 213-E6 5GS 213-E6 (VHH)
# chain: EVQLVESGGGLVQAGASLRLSCAASGSTLSRYGVGWFRQAPGKERELVASVDWSGSRTYYADSVKGRFTISRDNAKNTGYLQMNSLKPDDTAVYYCAADSSVVPGIEKYDDWGLGTQVTVSSGGGGSEVQLVESGGGLVQAGASLRLSCAASGSTLSRYGVGWFRQAPGKERELVASVDWSGSRTYYADSVKGRFTISRDNAKNTGYLQMNSLKPDDTAVYYCAADSSVVPGIEKYDDWGLGTQVTVSS
# B15: 214-E8 15GS 214-E8 (VHH)
# chain: EVQLVESGGGSVQAGGSLRLSCAASGGTFNPYVMAWFRQAPGNEREFVARIRWSGGDAYYDDSVKGRFAITRDAAKNTVHLQMNSLKPEDTAVYYCAAATYGYGSYTYGGSYDLWGQGTQVTVSSGGGGSGGGGSGGGGSEVQLVESGGGSVQAGGSLRLSCAASGGTFNPYVMAWFRQAPGNEREFVARIRWSGGDAYYDDSVKGRFAITRDAAKNTVHLQMNSLKPEDTAVYYCAAATYGYGSYTYGGSYDLWGQGTQVTVSS
# Target: Rabies virus glycoprotein G, Challenge Virus Standard (CVS)-11 strain (Rabies virus, strain CVS-11 (genotype 1 Lyssavirus)) (UniProt O92284)
# Sequence (O92284 20-524 limits assumed): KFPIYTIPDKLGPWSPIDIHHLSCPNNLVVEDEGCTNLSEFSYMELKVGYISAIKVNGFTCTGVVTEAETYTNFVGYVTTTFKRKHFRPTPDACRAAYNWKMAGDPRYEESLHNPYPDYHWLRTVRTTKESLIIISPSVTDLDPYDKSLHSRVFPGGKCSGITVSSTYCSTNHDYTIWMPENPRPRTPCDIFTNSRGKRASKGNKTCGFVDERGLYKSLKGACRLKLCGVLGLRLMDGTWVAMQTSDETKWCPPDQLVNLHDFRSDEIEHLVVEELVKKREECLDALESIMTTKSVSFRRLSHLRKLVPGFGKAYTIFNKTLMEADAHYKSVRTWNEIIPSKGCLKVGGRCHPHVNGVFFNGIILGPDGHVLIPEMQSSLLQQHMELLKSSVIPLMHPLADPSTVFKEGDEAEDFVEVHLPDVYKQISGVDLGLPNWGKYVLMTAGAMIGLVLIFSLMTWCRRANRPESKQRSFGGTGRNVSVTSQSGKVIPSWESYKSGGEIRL
# Test: cell-based or functional assay
Binder,"CVS-11 neutralizing antibody titer (RFFIT), IU/mg [IU/mg]","CVS-11 neutralizing antibody titer (RFFIT), IU/ml [IU/ml]","CVS-11 neutralizing antibody titer (RFFIT), IU/µM [IU/µM]","CVS-11 neutralizing antibody titer (RFFIT), nM IC50 [nM]"
B1,7.93,9.12,0.12,293
B2,8.17,11.4,0.12,284
B3,< 0.63,< 0.5,< 0.01,> 5880
B4,7.38,4.87,0.11,316
B5,7.61,5.1,0.11,305
B6,< 0.63,< 0.5,< 0.01,> 5960
B7,7.19,1.15,0.11,325
B8,10.6,4.24,0.16,220
B9,< 0.48,< 0.5,< 0.01,> 7820
B10,9.31,9.12,0.14,250
B11,1.72,1.62,0.03,1340
B12,3.66,2.6,0.05,634

# Target: Rabies virus glycoprotein G, ERA strain (attenuated vaccine strain, ATCC VR332) (Rabies virus, ERA strain (genotype 1 lyssavirus)) (UniProt P03524)
# Sequence (P03524 20-524 limits assumed): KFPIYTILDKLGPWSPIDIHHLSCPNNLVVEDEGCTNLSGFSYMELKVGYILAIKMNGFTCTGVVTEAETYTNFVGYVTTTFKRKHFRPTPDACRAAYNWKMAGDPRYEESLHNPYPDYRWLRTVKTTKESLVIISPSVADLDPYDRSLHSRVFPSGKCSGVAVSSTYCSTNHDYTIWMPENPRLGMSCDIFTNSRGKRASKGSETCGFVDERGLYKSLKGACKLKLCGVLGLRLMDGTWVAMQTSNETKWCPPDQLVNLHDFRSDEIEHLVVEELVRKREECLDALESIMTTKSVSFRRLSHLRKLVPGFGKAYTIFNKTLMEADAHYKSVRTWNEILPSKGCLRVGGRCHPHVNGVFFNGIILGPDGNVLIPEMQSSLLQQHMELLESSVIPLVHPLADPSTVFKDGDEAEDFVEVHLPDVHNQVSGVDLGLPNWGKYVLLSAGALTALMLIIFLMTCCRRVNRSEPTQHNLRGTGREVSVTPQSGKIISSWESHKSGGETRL
# Test: cell-based or functional assay
Binder,ERA neutralizing antibody titer (RFFIT): EU/mg [EU/mg],ERA neutralizing antibody titer (RFFIT): EU/ml [EU/ml],ERA neutralizing antibody titer (RFFIT): EU/µM [EU/µM],ERA neutralizing antibody titer (RFFIT): nM IC50 [nM]
B1,< 0.43,< 0.5,< 0.01,> 8560
B3,< 0.63,< 0.5,< 0.01,> 5880
B4,8.35,5.51,0.12,268
B5,8.91,5.97,0.13,251
B6,< 0.63,< 0.5,< 0.01,> 5960
B7,23.8,3.81,0.36,94
B8,35.1,14,0.52,63.7
B9,< 0.48,< 0.5,< 0.01,> 7820
B10,< 0.51,< 0.5,< 0.01,> 7300
B11,0.55,0.52,0.01,3940
B12,2.59,1.84,0.04,865

# Target: Rabies virus glycoprotein G, strain CVS-11 (Challenge Virus Standard-11, ATCC VR 959) (Rabies virus, strain CVS-11)
# Test: cell-based or functional assay
Binder,CVS neutralizing antibody titre (RFFIT): IU/mg [IU/mg],CVS neutralizing antibody titre (RFFIT): IU/ml [IU/ml],CVS neutralizing antibody titre (RFFIT): IU/nM [IU/nM],CVS neutralizing antibody titre (RFFIT): nM IC50 [nM],Potency (IU/nM) increase versus monovalent [fold]
B13,330,330,8.57,3.74,4.6
B14,1300,1290,36,0.88,27.7
B15,349,454,9.78,3.28,31.5

# Target: Rabies virus glycoprotein G, strain CVS-11 (ATCC VR 959) (Rabies virus, strain CVS-11 (genotype 1))
# Test: cell-based or functional assay
Binder,CVS neutralizing antibody titer: IU/mg [IU/mg],CVS neutralizing antibody titer: IU/ml [IU/ml],CVS neutralizing antibody titer: IU/µM [IU/µM],CVS neutralizing antibody titer: nM IC50 [nM]
B2,17.8,25,0.27,111
